Laboratory results: publication PMC2211892

Molecular target: StcE′ E435D-His (Escherichia coli O157:H7) (UniProt O82882)
Experiment: flow cytometry on cells

B1: C1 esterase inhibitor (C1-INH), purified (natural protein)
chain: NPNATSSSSQDPESLQDRGEGKVATTVISKMLFVEPILEVSSLPTTNSTTNSATKITANTTDEPTTQPTTEPTTQPTIQPTQPTTQLPTDSPTQPTTGSFCPGPVTLCSDLESHSTEAVLGDALVDFSLKLYHAFSAMKKVETNMAFSPFSIASLLTQVLLGAGENTKTNLESILSYPKDFTCVHQALKGFTTKGVTSVSQIFHSPDLAIRDTFVNASRTLYSSSPRVLSNNSDANLELINTWVAKNTNNKISRLLDSLPSDTRLVLLNAIYLSAKWKTTFDPKKTRMEPFHFKNSVIKVPMMNSKKYPVAHFIDQTLKAKVGQLQLSHNLSLVILVPQNLKHRLEDMEQALSPSVFKAIMEKLEMSKFQPTLLTLPRIKVTTSQDMLSIMEKLEFFDFSYDLNLCGLTEDPDLQVSAMQHQTVLELTETGVEAAAASAISVARTLLVFEVQQPFLFVLWDQQHKFPVFMGRVYDPRA
B1 gave a fold level of C1-INH on erythrocyte surfaces against StcE′-His of 22 fold.
